Where no end group is shown, it is not given here. The star is where a group is joined. FITC = O=C1OC2(c3ccc(O)cc3Oc3cc(O)ccc32)c2ccc(NC(=S)*)cc21; Ahx = NCCCCCC(=O)O
Experiments:
Assay in all cases: FP
human importin α7 ΔIBB = human importin α7 ΔIBB (human)
human importin α5 ΔIBB = human importin α5 ΔIBB (human)
human importin α1 ΔIBB = human importin α1 ΔIBB (human)
mouse importin α2 ΔIBB = mouse importin α2 ΔIBB (mouse, UniProt P52293 70-529)

Sequence of human importin α5 ΔIBB (human) (chain, as listed by the source mutant): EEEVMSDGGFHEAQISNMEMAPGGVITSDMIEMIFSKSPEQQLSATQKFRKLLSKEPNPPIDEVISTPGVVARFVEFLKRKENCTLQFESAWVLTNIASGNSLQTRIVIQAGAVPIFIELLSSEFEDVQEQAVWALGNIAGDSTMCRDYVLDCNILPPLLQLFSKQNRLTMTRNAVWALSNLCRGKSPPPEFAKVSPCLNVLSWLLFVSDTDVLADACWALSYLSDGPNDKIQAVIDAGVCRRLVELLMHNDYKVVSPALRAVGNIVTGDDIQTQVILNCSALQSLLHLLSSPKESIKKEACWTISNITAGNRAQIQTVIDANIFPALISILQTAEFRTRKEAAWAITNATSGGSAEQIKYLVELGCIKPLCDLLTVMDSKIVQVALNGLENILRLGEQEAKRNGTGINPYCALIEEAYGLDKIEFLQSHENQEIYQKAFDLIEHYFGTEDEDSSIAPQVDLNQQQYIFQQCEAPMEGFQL
Sequence of human importin α7 ΔIBB (human) (chain, as listed by the source mutant): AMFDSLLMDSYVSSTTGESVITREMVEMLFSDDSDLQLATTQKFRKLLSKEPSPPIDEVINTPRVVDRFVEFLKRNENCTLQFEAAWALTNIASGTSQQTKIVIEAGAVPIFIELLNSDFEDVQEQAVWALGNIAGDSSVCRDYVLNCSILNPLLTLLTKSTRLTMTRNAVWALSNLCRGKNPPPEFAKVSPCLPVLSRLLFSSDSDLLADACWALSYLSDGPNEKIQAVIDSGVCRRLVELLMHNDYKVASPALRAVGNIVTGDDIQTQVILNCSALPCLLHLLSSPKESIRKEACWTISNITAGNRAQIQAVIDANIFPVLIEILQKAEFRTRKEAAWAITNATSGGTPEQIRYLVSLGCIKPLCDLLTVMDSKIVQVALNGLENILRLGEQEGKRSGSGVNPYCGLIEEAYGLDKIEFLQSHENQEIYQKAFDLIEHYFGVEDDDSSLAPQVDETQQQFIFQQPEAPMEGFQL

B1: BSB PyV-LTA;NLS peptide (Black Sea Bass polyomavirus large tumor antigen residues 660-683) (peptide)
peptide: {FITC-Ahx}-IAEYKRRHNIGSDGLPNKRRRCLF
Human importin α7 ΔIBB
  Kd: 2 nM
Human importin α5 ΔIBB
  Kd: 12 nM
Human importin α1 ΔIBB
  Kd: 31 nM
Mouse importin α2 ΔIBB
  Kd: 4 nM
